Assay results as given in US20150183847A1.

Biological target: interleukin-1 receptor (human (CHO-derived cells) or murine (EL4 cells); not stated which gave the tables) (UniProt P14778)
Experiment: competition with 35S-IL-1Ra on IL-1 receptor cells, Kd=IC50/2

Kd: 0.15 to 0.4 nM
Substance: wild-type human IL-1Ra (from UniProt P18510 26-177)
